{
  "source": "patent US20240294650A1",
  "binders": {"B1": {"name": "MTK-210 (antibody, human IgG1, V domains shown)", "VH": "QVQLQQSGPELVKPGASVKISCKASDYEFSRSWMNWVKQRPGKGLEWIGRIYPGDGDTNYNGKFKGKATLTADKSSNTAYMQLNSLTSEDSAVYFCARKGGYYYSISNYFDYWGQGTTLTVSS", "VL": "QIVLTQSPAIMSASPGVKVTMTCSASSSVSYMHWYQQKPGSSPRLLIYDTSNLASGVPVRFSGSGSGTSYSLTISRMEAEDAATYYCQQWSSYPPYTFGGGTKLEIK"}, "B2": {"name": "MTK-221 (antibody, human IgG1, V domains shown)", "VH": "QVTLKESGPGMLQSSQTLSLTCSFSGFSLSTSGMGVSWIRQPSGKGLEWLAHIYWDDDKRYNTSLQSRLTISKDTSRNQVFLKITSVDTADTATYFCGRLGAYSAFPYYFDYWGQGTTLTVSS", "VL": "DIQMTQSPSSLSASLGGKVTITCKASQDIHKHIAWYQHKPGKGPRLLIHYTSTLQPGIPSRFSGSGSGRDYSFSISNLEPEDLATYYCLQYDNLWTFGGGTKLEIK"}, "B3": {"name": "MTK-201 (antibody, human IgG1, V domains shown)", "VH": "QVQLRQSGPGLVQPSQSLSITCTVSGFSLSNYGLHWVRQSPGKGLEWLGVIWSGGITDYNAAFISRLSIIKDNSRSQVFFKMNSLQADDTAIYYCARKGHDPYAMDFWGQGTSVTVSS", "VL": "QIVLTQSPPIMSAFLGERVTMTCTASSSVSSSYLHWYRQMPGSSPKLWIYDTSNLASGVPARFSGSGSGTSYSLTISSMEAEDAATYYCHQYHHSPYTFGGGTKLEIK"}, "B4": {"name": "MTK-217 (antibody, human IgG1, V domains shown)", "VH": "QVQLQQPGTEVVKPGASVKMSCRASGYTFTSYWITWVKQRPGQGLEWIGDIHPGSGINNYNEKFRSKATLTVDTSSSTVYMELSSLTSEDSAVYYCAKGGYYGSSYYVMDYWGQGTSVTVSS", "VL": "DILLTQSPAILSVSPGERVSFSCRASQTIGTSIHWYQQRTNDSPRLLIKYASESISGIPSRFSGSGSGTDFTLSINSVESEDIADYYCQQSNDWPYTFGGGTKLEIK"}, "B5": {"name": "MTK-208 (antibody, human IgG1, V domains shown)", "VH": "QVQLQQPGAELVVPGASVRLSCKASGYTFINYWMHWVKQRPGQGLEWIGEIDPSDSYANYNQKFKDKSTLSLDKSSSTAYMQLSSLTSEDSAVYYCARCDYYGRLDYWGQGTTLTVSS", "VL": "QVVLTQSPAIMSASPGEKVTITCSASSSVSYMLWFQQKPGTSPKLWIYSTSNLASGVPARFSGSGSGTSYSLTISRLEAEDAATYYCQQRSSYPPITFGAGTKLELK"}},
  "data": [
    {"biological_target": "endogenous murine MerTK on bone marrow-derived macrophages (mouse) (UniProt Q60805)", "sequence (Q60805 19-994)": "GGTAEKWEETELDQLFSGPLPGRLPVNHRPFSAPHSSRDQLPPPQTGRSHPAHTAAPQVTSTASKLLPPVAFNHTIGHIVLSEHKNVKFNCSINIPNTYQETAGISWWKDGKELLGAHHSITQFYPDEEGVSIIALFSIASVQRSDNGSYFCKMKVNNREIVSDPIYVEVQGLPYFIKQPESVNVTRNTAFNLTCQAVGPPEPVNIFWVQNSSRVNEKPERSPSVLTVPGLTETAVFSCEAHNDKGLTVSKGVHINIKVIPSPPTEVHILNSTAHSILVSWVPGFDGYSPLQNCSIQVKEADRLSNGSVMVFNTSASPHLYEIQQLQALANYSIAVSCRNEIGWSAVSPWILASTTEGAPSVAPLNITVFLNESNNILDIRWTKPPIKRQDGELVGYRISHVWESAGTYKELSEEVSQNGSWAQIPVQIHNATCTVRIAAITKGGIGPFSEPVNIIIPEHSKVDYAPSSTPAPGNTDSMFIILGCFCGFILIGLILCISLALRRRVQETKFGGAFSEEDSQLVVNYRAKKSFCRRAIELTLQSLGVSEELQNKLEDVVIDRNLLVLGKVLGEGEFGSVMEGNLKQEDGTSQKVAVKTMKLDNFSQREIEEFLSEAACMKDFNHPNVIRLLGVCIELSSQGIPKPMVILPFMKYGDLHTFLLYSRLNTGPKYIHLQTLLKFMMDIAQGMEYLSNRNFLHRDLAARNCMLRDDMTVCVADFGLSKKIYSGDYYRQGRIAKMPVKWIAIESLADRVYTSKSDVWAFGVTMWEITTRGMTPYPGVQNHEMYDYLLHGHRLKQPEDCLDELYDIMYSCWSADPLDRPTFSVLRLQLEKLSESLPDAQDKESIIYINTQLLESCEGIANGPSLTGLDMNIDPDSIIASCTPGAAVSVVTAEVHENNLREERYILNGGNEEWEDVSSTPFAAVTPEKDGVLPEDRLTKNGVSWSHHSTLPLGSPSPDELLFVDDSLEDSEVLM", "experiment": "FACS, mouse BMDM, WT minus MerTK KO", "units": {"MFI": "MFI"}, "values": [
      {"binder": "B1", "MFI": 1270},
      {"binder": "B2", "MFI": 993},
      {"binder": "B3", "MFI": 1030},
      {"binder": "B4", "MFI": 1130},
      {"binder": "B5", "MFI": 1170}
    ]}
  ]
}
